18 molecules from patent publication US20140314832A1 (SHANGHAI PULMONARY HOSPITAL TONGJI UNIVERSITY SCHOOL OF …, published 2014) can be followed below.

First the molecules themselves.
B1: Nb11 (VHH)
VHH: MQAQLAGQLQLVESGGGLVQPGGSLRLSCVVSGVTFNNYGMTWVRQAPGKGLEWISTIYSNGHTYYADFVKGRFTISRDNAKNTLYLQMISLKPEDTAKYYCRLTGETYRGQGTQVTVSSEPKTRKPQGPRGLAAAGAPVPYPDPLEPRAA
notes: Alpaca VHH clone; screened as phage clone; also called N0; 11; rSPA-Nb
B2: Nb43 (VHH)
VHH: MQAQLAGQLQLVESGGGLVQIGGSLRLSCAASGSDFSIYHMGWYRQAPGKQRELVAAITSGGSTNYADSVKGRFTISSDNAKNTVYLQMNSLKPEDTAVYYCNADGVPEYSDYASGPVYWGQGTQVTVSSAHHSEDPGPRGLAAAGAPVPYPDPLEPRAA
notes: Alpaca VHH clone; screened as phage clone; also called N0; 43; rSPA-Nb
B3: Nb22 (VHH)
VHH: MQAQLAGQLQLVESGGGLVQPGGSLRLSCAASGRAFSVYAVGWYRQPPGKQRELVASITDGGSTNYADSVKGRFTVSRDNARNTAYLDMNSLKVEDTAVYYCNANYGGSVLYNYWGPGTQVTVSTEPKTPKPQGPRGLAAAGAPVPYPDPLEPRAA
notes: Alpaca VHH clone; screened as phage clone; also called N0; 22; rSPA-Nb
B4: Nb3 (VHH)
VHH: MQAQLAVQLQLVESGGGLVQPGGSLRLSCVVSGVTFNNYGMSWVRQAPGKGLEWISSIYSNGHTYSADSVKGRFTISRDNANNTLYLQMNSLKPEDTANYYCKLVGETHRGQGTQVTVSSEPNTPKPQGPRGLAAAGAPVPYPDPLEPRAAYTVESCLA
notes: Alpaca VHH clone; screened as phage clone; also called N0; rSPA-Nb
B5: Nb36 (VHH)
VHH: MQAQLAVQLQLVESGGGLVQPGGSLRLSCAASGRAFSVYAVGWYRQIPGNQREMVAAISSGGNTKYSDSVKGRFTVSSEPKTPKPQGPRGLAAAGAPVPYPDPLEPRAA
notes: screened as phage clone; also called N0; 36; rSPA-Nb
B6: Nb28 (VHH)
VHH: MQAQLAGQLQLVESGGGLVQPGGSLRLSCEASGFTFDDYAIGWFRQAPGKEREEVSCISHNGGTTNYADSVKGRFSISRDNAKNTVYLQMNGLKPEDTANYYCAGARSGLCVFFELQDYDYWGQGTQVTVSSAHHSEDPGPRGLAAAGAPVPYPDPLEPRAA
notes: Alpaca VHH clone; screened as phage clone; also called N0; 28; rSPA-Nb
B7: Nb41 (VHH)
VHH: MQAQLAGQLQLVESGGGMVQPGGSLRLSCAASGFIFSRYDMGWVRQTPGKGREWVSGINSGGGRTYYADSVKGRFTISRDDDKATLYLSMDGLKPEDTALYHCVRFTVKTPQGYYYLNDFDYWGQGTQVTVSSEPKTPKPQGPRGLAAAGAPVPYPDPLEPRAA
notes: Alpaca VHH clone; screened as phage clone; also called N0; 41; rSPA-Nb
B8: Nb48 (VHH)
VHH: MQAQLAGQLQLVESGGGLVEVGESLRLSCVALGFTLDGYAIGWFRQAPGKEREKISCISSTGDSTNYDDSVKGRFTISRDTAKSTVFLQMNNLIPEDTAIYYCGADLLARCGRVWYFPPDLNYRGQGTQVTVSSAHHSEDPGPRGLAAAGAPVPYPDPLEPRAA
notes: Alpaca VHH clone; screened as phage clone; also called N0; 48; rSPA-Nb
B9: Nb45 (VHH)
VHH: MQAQLAVQLQLVESGGGLVQAGGSLRLSCVASGSMFNFYGMAWYRQAPGKQRELVASIDSEGRTTNYPDSLKGRFTISRDDAKSTAYLQMNNLIPDDTAVYYCNAFRGRMYDYWGQGTQVTVSSEPKTPKPQGPRGLAAAGAPVPYPDPLEPRAA
notes: Alpaca VHH clone; screened as phage clone; also called N0; 45; rSPA-Nb
B10: Nb32 (VHH)
VHH: MQAQLAGQLQLVESGGGLVQPGGSLRLSCTASKFHLDSYAVAWFRQTPGKEREAVSFINTSDDVTYFADSVKGRFTISRDNSKNTVYLQMNVLKPEDTSVYVCAAVRSPGPTGPSMQPMWSVPDLYDYWGQGTQVTVSSAHHSEDPGPRGLAAAGAPVPYPDPLEPRAA
notes: Alpaca VHH clone; screened as phage clone; also called N0; 32; rSPA-Nb
B11: Nb34 (VHH)
VHH: MQAQLAVQLQLVESGGGTVQPGGSLNLSCVTSGFTFSRHDMSWVRQAPGKGPEWISGIGTSGTSGRYASSVKGRFTISRDNAKDTLYLQMDSLKPEDTGLYYCTTGGVYSAYVQPRGKGTQVTVSSAHHSEDPGPRGLAAAGAPVPYPDPLEPRAA
notes: Alpaca VHH clone; screened as phage clone; also called N0; 34; rSPA-Nb
B12: Nb47 (VHH)
VHH: MQAQLAGQLQLVESGGGRVQAGGSLTLSCAASGDIFTLASMGWYREDLHKKRELVAQLMSDGTANYGDSVKGRVTISRDDVDTTVHLRMNTLQPSDTGEYFCYIHTSREITWGRGTQVTVSQGESSAPQSSAPQATVSSAHHSEDPGPRGLAAAGAPVPYPDPLEPRAA
notes: Alpaca VHH clone; screened as phage clone; also called N0; 47; rSPA-Nb
B13: Nb27 (VHH)
VHH: MQAQLAVQLQLVESGGGLVQPGGSLRLSCEVSGSRGSIYFSGWYRQAPGKQRELVASITSGGTTNYADSVKGRFTISRDNAKNTVYLQMNSLKPEDTAVYYCNIGRYGLGGSWGQGTQVTVSSEPKTPKPQGPRGLAAAGAPVPYPDPLEPRAA
notes: Alpaca VHH clone; screened as phage clone; also called N0; 27; rSPA-Nb
B14: Nb1 (VHH)
VHH: MQAQLAGQLQLVESGGGLVQPGGSLKLSCTASETTFEIYPMAWYRQAPGKQRELVAGINMISSTKYIDSVKGRFTISRDNDKNTMYLQMNSLKPEDTAVYYCNLDTTMVEGVEYWGQGTQVTVSSAHHSEDPGPRGLAAAGAPVPYPDPLEPRAA
notes: Alpaca VHH clone; screened as phage clone (pCANTAB 5E); also called N0; rSPA-Nb
B15: Nb17 (VHH)
VHH: MQAQLAVQLQLVESGGGLVQPGGSLRLSCVVSGVTISNYGMSWVRQAPGKGLEWISTIYSNGHTYSADSVKGRFTISRDNAKNTLYLQMNSLKPEDTAKYYCKLVGETHRGQGTQVTVSSEPKTPKPQGPRGLAAAGAPVPYPDPLEPRAA
notes: Alpaca VHH clone; screened as phage clone, then cloned into PET-30a, expressed in E. coli BL21 (DE3), nickel-purified, 17 kDa, detected with anti-His; also called N0; 17; rSPA-Nb
B16: Nb18 (VHH)
VHH: B15 VHH with V7G, R26M, S42T, S66Y, I76A, V105T
notes: Alpaca VHH clone; screened as phage clone; also called N0; 18; rSPA-Nb
B17: Nb9 (VHH)
VHH: MQAQLAGQLQLVESGGGLVQPGGSLRLSCTASEFTLDYHSIGWFRQAPGKEREGVSCISYGDGTTFYTDSVKGRFTISRDNAKNTVTLQMNSLKPEDTAVYYCAASPGRLLLFRLCMSEDEYDFWGQGTQVTVSSEPKTPKPQGPRGLAAAGAPVPYPDPLEPRAA
notes: as for B4
B18: Nb19 (VHH)
VHH: B17 VHH
notes: Alpaca VHH clone; screened as phage clone; also called N0; 19; rSPA-Nb

Residue numbers refer to the chain shown, from its start.

For the first test, the target named is T1, rat pulmonary surfactant protein A (rSP-A), recombinant (rat (Rattus norvegicus), UniProt P08427 21-248, limits assumed). Description: indirect phage ELISA on coated rSP-A, OD 450 nm. Here is the method: (1) Single clonies obtained from the three rounds of selections and grown on 2YTAG plates were inoculated into the 72-well culture plate at 30° C., and cultured with shaking overnight. (2) 400 ul of M13K07 helper phage was put in each well of another 72-well culture plate (labeled P1 Plate) the next day. (3) 40 ul of cultured medium were taken from each well of the Master Plate, which was cultured overnight, and put in each well of the P1 Plate, and incubated at 37° C. with shaking overnight. The culture supernatant was prepared by centrifugation at 1500 g for 20 minutes set aside, and the recombinant antibody was obtained. (4) A 96-well microtiter plate was coated with rSP-A. (5) 160 ul of recombinant antibody was mixed with 40 μL of MPBS, incubated for 20 minutes at room temperature. It was then added to blocked microtiter wells and reacted for 2 hours at 37° C. (6) Washing and adding HRP secondary antibody: HRP-labeled antibody against M13KO7 was diluted 1:4000 in PBS, 200 ul of that was added to each well, and incubated and reacted for 1 hour at 37° C. (7) 200 ul TMB substrate solution was added to each well, incubated at 37° C. for about 45 minutes to develop the image, 100 ul of stop solution was added to each well to stop the development process, and measurements were taken at 450 nm. Preliminary screening was conducted to select positive clones binding to rSP-A ith specificity.
Take B1: the “affinity value relative to negative control” value was 3 fold over negative control.

Consider B2, for which the “affinity value relative to negative control” value was 3 fold over negative control.

Consider B3, for which the “affinity value relative to negative control” value was 3 fold over negative control.

For B4, the “affinity value relative to negative control” value was 3 fold over negative control.

As to B5, the “affinity value relative to negative control” value was 3 fold over negative control.

Take B6: the “affinity value relative to negative control” value was 3 fold over negative control.

For the molecule B7, the “affinity value relative to negative control” value is 3 fold over negative control.

With B8, the “affinity value relative to negative control” value is 3 fold over negative control.

Turning to B9, the “affinity value relative to negative control” value was 3 fold over negative control.

As to B10, the “affinity value relative to negative control” value was 3 fold over negative control.

Take B11: the “affinity value relative to negative control” value is 3 fold over negative control.

Turning to B12, the “affinity value relative to negative control” value was 3 fold over negative control.

For the molecule B13, the “affinity value relative to negative control” value is 3 fold over negative control.

With B14, the “affinity value relative to negative control” value is 3 fold over negative control.

In a further test the target is T2, natural SP-A in rat lung tissue (rat, UniProt P08427 21-248).
T2 construct: The immunohistochemistry is done on rat lung tissue; also called natural SP-A in the lung tissue
Description: immunohistochemistry on rat lung tissue slices, HIS-IgG-HRP secondary. From the text: Fresh tissues from the lung, heart, liver, spleen, kidney, muscle of rat were fixed and sliced, and diluted primary antibody (Nb6, Nb17 for the experimental groups, SPA polyclonal antibody (SPA-poly-ant) as a positive control group, and alliinase as a negative control group) was dropped on. The secondary antibody was HIS-IgG-HRP. […] The binding effect of Nb17 was similar to that of SPA-poly-ant, while Nb6 had weaker binding effect than Nb 17, as there is differneces in the amino acid sequence at the antigen binding region between these two. All three antibodies had no obvious binding effect with rat heart, liver, spleen, kidney, muscle tissues, nor had the negative control group (FIG. 6).
With B15, the binding result is “binds”.

A further test addresses T2, natural SP-A in rat lung tissue. The experiment in a line: immunohistochemistry (method of Example 6, rat lung tissue).
For the molecule B1, the binding result was “binds”.

Consider B16, for which the binding result is “binds”.

For the molecule B8, the binding result is recorded as “binds”.

As to B10, the binding result is recorded as “binds”.

As for B17, the binding result is “binds”.

Consider B18, for which the binding result is recorded as “binds”.

Another test deals with T1, rat pulmonary surfactant protein A …. Description: ELISA of purified nanobody on rSP-A, OD450.
Regarding B1, the “OD450 relative to negative control” value is 5 fold over negative control.

Regarding B5, the “OD450 relative to negative control” value is 5 fold over negative control.

As to B8, the “OD450 relative to negative control” value is 5 fold over negative control.

On to B10, for which the “OD450 relative to negative control” value was 5 fold over negative control.
